Test results taken from PMC12354568.
Where “and” joins values, the source holds several entries; their conditions need not be identical. Equal entries are not always repeated.

Biological target: human neonatal Fc receptor (FcRn), His-tagged (human) (UniProt P55899)
Experiment: BLI

Kd	Substance
26.5 to 30.4 nM and 26.3 to 31.7 nM	RGB-19 tocilizumab (proposed biosimilar, IV and SC drug products) (antibody)
19.2 to 34.5 nM and 17.6 to 35.4 nM	RoActemra^® tocilizumab (EU-sourced reference medicinal product, IV and SC) (antibody)
